Results: paper PMC12852032

Legend:
recombinant rat C2 (rat) [1] = assay: Meso Scale Discovery (electrochemiluminescence plate binding assay); rat C2 coated on the plate; serial dilutions of antibody; binding and washing at pH 7.4 + 1.25 mM Ca2+
recombinant rat C2 (rat) [2] = assay: Meso Scale Discovery (electrochemiluminescence plate binding assay); rat C2 coated on the plate; serial dilutions of antibody; binding and washing at pH 7.4; detection with Sulfo-tag goat anti-human IgG

maximum MSD signal (recombinant rat C2 (rat) [1]): 24700
maximum MSD signal (recombinant rat C2 (rat) [2]): 12000
B1: empasiprubart (antibody, V domains shown)
VH: EVQLVQSGAEVKKPGASVKVSCKASGYTFTDYNMDWVRQATGQGLEWIGDINPNYESTGYNQKFKGRATMTVDKSISTAYMELSSLRSEDTAVYYCAREDDHDAFAYWGQGTLVTVSS
VL: DNVLTQSPDSLAVSLGERATISCRASKSVRTSGYNYMHWYQQKPGQPPKLLIYLASNLKSGVPDRFSGSGSGTDFTLTISSLQAEDAATYYCQHSRELPYTFGQGTKLEIK
